Test results reported in patent publication US20080221021A1, “Novel Corticotropin-Releasing Factor Receptor 1 (Crfr1) Agonist” (Max-Planck-Gesellschaft Zur Forderung Der, priority 2004, published 2008).
Entries after “also recorded” stand apart in the source; their conditions may differ. Where no end group is shown, it is not given here.

Assays:
rCRFR1 = target: T1, rCRFR1 (Rattus norvegicus, UniProt P35353); experiment: Competition binding scintillation proximity assay, rCRFR1 membranes
T1 construct: expressed in transfected cells
T1 sequence (P35353 24-415): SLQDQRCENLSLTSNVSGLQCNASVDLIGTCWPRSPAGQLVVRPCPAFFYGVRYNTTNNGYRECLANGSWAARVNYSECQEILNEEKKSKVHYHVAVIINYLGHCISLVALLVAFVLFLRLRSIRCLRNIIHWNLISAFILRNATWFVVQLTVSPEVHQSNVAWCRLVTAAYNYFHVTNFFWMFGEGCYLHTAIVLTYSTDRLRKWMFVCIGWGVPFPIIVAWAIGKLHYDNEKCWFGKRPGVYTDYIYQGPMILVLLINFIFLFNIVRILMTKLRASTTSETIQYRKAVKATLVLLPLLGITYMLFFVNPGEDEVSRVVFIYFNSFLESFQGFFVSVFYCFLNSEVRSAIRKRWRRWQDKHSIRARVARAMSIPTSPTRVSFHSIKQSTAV
Experimental: (§1) Crude membrane fractions were prepared from human embryonic kidney (HEK) 293 cells stably expressing either cloned rat CRFR1α(rCRFR1) or mouse CRFR2β (mCRFR2β) as described (20). Rat CRFBP (rCRFBP) was produced in HEK 293 cells stably transfected with cDNA coding for rCRFBP C-terminally fused with a His6 sequence as described (36). The scintillation proximity assays (SPA) for binding analysis of CRFR and CRFBP have been already described in detail (21, 22). For competition binding assays of rCRFR1 and rCRFBP, [^125I-Tyr^0]h/rCRF was used as radiolabeled peptide, whereas [^125I-Tyr^0]Svg was employed for mCRFR2β.

mCRFR2β [1] = target: T2, mCRFR2β (Mus musculus, UniProt Q60748); experiment: Competition binding scintillation proximity assay, mCRFR2β membranes
T2 construct: expressed in transfected cells
Experimental: as §1

mCRFR2β [2] = target: T2, mCRFR2β; experiment: Agonist-induced intracellular cAMP accumulation in HEK 293 cells producing mCRFR2β; assay type: cell-based; conditions: in words
Experimental: The biological potency of cortagine and OCRF was evaluated by the determination of the EC50 values for agonist-induced intracellular accumulation of cAMP in HEK 293 cells producing either rCRFR1 or mCRFR2β.
The HEK 293 cells were plated into 24 well cell culture plates and stimulated as described (21) using increasing concentrations of the agonists under investigation. Intracellular cAMP was measured with the Biotrak™ cAMP [^125I] SPA system (Amersham Pharmacia Biotech) according to the manufacturer's product manual.

[3] = Maximum solubility in aCSF by amino acid analysis; assay type: physicochemical; conditions: pH 7.4
Experimental: After dissolving the peptides in artificial cerebrospinal fluid (aCSF; 124 mM NaCl, 26.4 mM NaHCO3, 10 mM glucose, 3.3 mM KCl, 2.5 mM CaCl2 , 2.4 mM MgSO4 , 1.2 mM KH2PO4) at pH=7.4, the maximum solubility cmax was determined by amino acid analysis as described (21). The isoelectric point of the peptides was determined by isoelectric focusing (IEF) as described (21) with a Bio-Rad IEF cell system using Bio-Rad IEF strips in the pH range 3-10.

C57BL/6J mice = experiment: Forced swim test, i.c.v. injection; assay type: in vivo, mouse
Experimental: Nine-week old male C57BL/6J (Centre D'Elevage Janvier, Sultzfeld, France) were individually housed in macrolon cages according to the recommendations of the Society for Laboratory Animal Science (Germany). All experiments were carried out in accordance with the European Council Directive (86/609/EEC) with the permission of the Animal Protection Law enforced by the District Government of Braunschweig, State of Lower Saxony, Germany, which is in full agreement with the APA ethical guidelines. All efforts were made to minimize animal suffering. The number of mice per group was 9-11.
All peptides were dissolved in aCSF except for the CRFR2-selective antagonist antisauvagine-30 (aSvg-30) (20) that was initially dissolved in 10 mM aqueous acetic acid and diluted with the same volume of two-fold concentrated aCSF. The final pH of the peptide solutions was 7.4. The exact peptide concentration of the injection solutions was determined by amino acid analysis with a Beckman HPLC analyzer system 6300. Total hydrolysis of the peptides was carried out in the presence of 1 nmol norvaline as internal standard with 6 M HCl for 24 h at 100° C.
For the forced swim test (FST), C57BL/6J mice cannulated in the lateral ventricles were subjected to swim sessions in individual glass cylinders (height 39 cm, diameter 21.7 cm) containing water, 15-cm deep, at 23-25° C. On day 1, all animals were placed in the cylinder for a preswim session of 15 min. On the test day 24 h later (day 2), the mice were subjected to a testswim session for 6 min. The water was changed between subjects. All testswim sessions were recorded by a video camera positioned directly above the cylinder. A component observer blind to treatment scored the videotapes. The behavioral measure scored was the duration of immobility, defined as time spent still or only using righting movements to keep the head over water. An increase in immobility time was interpreted as an increase of depression-like behavior. In all behavioral experiments, the cannula placement was confirmed for each mouse by histological examination of the brains after methylene blue injection (23). The behavioral data are expressed as mean±SEM, and were analysed using a two- and one-way ANOVA, with Bonferri/Dunn test applied, post hoc, for individual between-group comparisons at the p<0.05 level of significance.

T2 sequence (Q60748 1-431 isoform Q60748-2): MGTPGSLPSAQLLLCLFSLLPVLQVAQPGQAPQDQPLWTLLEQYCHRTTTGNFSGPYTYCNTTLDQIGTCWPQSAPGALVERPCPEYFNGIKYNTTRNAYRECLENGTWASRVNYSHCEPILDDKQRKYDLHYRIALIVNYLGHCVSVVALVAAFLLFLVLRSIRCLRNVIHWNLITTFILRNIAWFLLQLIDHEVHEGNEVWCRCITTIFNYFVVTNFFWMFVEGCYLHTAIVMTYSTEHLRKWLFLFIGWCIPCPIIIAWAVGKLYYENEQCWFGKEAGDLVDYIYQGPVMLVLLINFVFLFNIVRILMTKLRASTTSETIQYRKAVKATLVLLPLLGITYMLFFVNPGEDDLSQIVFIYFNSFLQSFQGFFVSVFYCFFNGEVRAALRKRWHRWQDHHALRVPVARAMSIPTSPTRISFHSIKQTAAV

Substance: [Glu^21, Ala^40] [Svg^1-12]x[h/rCRF^14-30]x[Svg^30-40] (XGPPISIDLSLELLREVLEMERAEQLAQQAANNRLLLDTA; X not resolved here; ends and bridges not checked; also: Glx at position 1 not given here (Gln/Glu/pGlu)) [cortagine]
- selectivity for CRFR1 (rCRFR1; binding analysis, CRFR1 vs CRFR2, in words): high selectivity for rCRFR1 over mCRFR2β
- change in affinity to CRFR1 in comparison to parent peptide (rCRFR1; compound 8 vs compound 6, compound 9 vs compound 8, Nle20 analog vs compound 9): no significant change
- CRFR1-selectivity over CRFR2β, IC50(mCRFR2)/IC50(rCRFR1) (rCRFR1; ratio of binding affinities): 208
- affinity for CRFR2 (mCRFR2β [1]; binding analysis, in words): negligible
- change in affinity for CRFR2 in comparison to parent peptide (mCRFR2β [1]; compound 8 vs compound 6, compound 9 vs compound 8): no significant change
- biological potency at mCRFR2β compared with rCRFR1 (mCRFR2β [2]): about one to two orders of magnitude lower
- maximal solubility cmax [3]: up to 1000 μM
- immobility time during the testswim session 24 h later (day 2) (C57BL/6J mice; 300 ng i.c.v. 30 min before preswim (day 1)): significantly reduced immobility time in comparison to oCRF-injected mice; also recorded: decrease of the immobility lime; also recorded: significant decrease
- immobility time during the preswim session (C57BL/6J mice; 300 ng i.c.v. 30 min before preswim (day 1), vs aCSF): significantly decreased the immobility time
- immobility time during the testswim session (C57BL/6J mice; 300 ng i.c.v. 30 min before testswim (day 2), vs aCSF): significantly decreased the immobility time
- floating time in the FST (C57BL/6J mice; mice): reduced significantly
